Source: publication PMC10778692

T1: L-Malate dehydrogenase (UniProt P00346)
T1 sequence: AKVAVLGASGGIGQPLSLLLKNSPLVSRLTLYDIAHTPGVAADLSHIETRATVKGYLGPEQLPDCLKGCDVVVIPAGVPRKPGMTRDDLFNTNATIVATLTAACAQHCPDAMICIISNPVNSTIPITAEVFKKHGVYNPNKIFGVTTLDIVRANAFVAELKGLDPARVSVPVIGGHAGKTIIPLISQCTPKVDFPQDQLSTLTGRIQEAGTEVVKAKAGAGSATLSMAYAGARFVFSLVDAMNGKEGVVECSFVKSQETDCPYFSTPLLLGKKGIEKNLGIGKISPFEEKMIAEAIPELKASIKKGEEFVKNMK

B1: HspB5 F113Y (natural protein)
chain: MDIAIHHPWIRRPFFPFHSPSRLFDQFFGEHLLESDLFPTSTSLSPFYLRPPSFLRAPSWFDTGLSEMRLEKDRFSVNLDVKHFSPEELKVKVLGDVIEVHGKHEERQDEHGYISREFHRKYRIPADVDPLTITSSLSSDGVLTVNGPRKQVSGPERTIPITREEKPAVTAAPKK
B2: HspB5 R116C (natural protein)
chain: MDIAIHHPWIRRPFFPFHSPSRLFDQFFGEHLLESDLFPTSTSLSPFYLRPPSFLRAPSWFDTGLSEMRLEKDRFSVNLDVKHFSPEELKVKVLGDVIEVHGKHEERQDEHGFISCEFHRKYRIPADVDPLTITSSLSSDGVLTVNGPRKQVSGPERTIPITREEKPAVTAAPKK

Experiments:
L-Malate dehydrogenase = biological target: T1, L-Malate dehydrogenase

Binder | DTT-induced aggregation of insulin with F113Y (5:1 substrate to sHsp), reduction in the peak level of light scattering at 340 nm (insulin) | heat-induced (55 °C) aggregation of MDH with R116C, reduction of light scatter at 340 nm against substrate alone (L-Malate dehydrogenase)
B1 | > 50% | –
B2 | – | 16%
